Assay results as given in the RNAGym collection of RNA variant scans (doi:10.1101/gr.219683.116).

B1: mRNA-splicing (parent)
chain: AGUUGCUGCUGGGAGCUCCAGCACAGUGAAAUGGACAGAAGGGCAGAGCAA

Variants of: B1
Test: exon inclusion enrichment index; higher = more inclusion; WT1 exon 5 minigene, HEK293

In order of rising “exon inclusion enrichment index” value:
1. C6A U7A C9A U10A C36G A37G  0.0922
2. C6A U7A C9A U10A C36U  0.122
3. C6A U7A C9A U10A C44U  0.122
4. C6A U7A C9A U10A C44G A45G  0.124
5. C6A U7A C9A U10A C36G A37C  0.129
6. C6A U7A C9A U10A G13U  0.142
7. C6A U7A C9A U10A G12U G13U  0.144
8. C6A U7A C9A U10A C36A A37G  0.204
9. C6A U7A C9A U10A C36G A37U  0.216
10. C6A U7A C9A U10A G21A C22A  0.228
11. C6A U7A C9A U10A C36A A37U  0.229
12. C6A U7A C9A U10A G21A C22U  0.235
13. C6A U7A C9A U10A G15U C16G  0.298
14. C6A U7A C9A U10A G15A C16U  0.351
15. C6A U7A C9A U10A G12C G13U  0.355
16. C6A U7A C9A U10A G15U C16U  0.36
17. C6A U7A C9A U10A G15A C16A  0.363
18. C6A U7A C9A U10A G15A C16G  0.366
19. C6A U7A C9A U10A G15U C16A  0.381
20. C6A U7A C9A U10A C36U A37U  0.411
21. C6A U7A C9A U10A C44U A45G  0.419
22. C6A U7A C9A U10A C36G  0.433
23. C6A U7A C9A U10A C44U A45U  0.433
24. C6A U7A C9A U10A C36U A37C  0.478
25. C6A U7A C9A U10A G21A  0.506
26. C6A U7A C9A U10A G15C C16A  0.525
27. C6A U7A C9A U10A C36A  0.531
28. C6A U7A C9A U10A G13U A14U  0.534
29. C6A U7A C9A U10A G13U A14G  0.553
30. C6A U7A C9A U10A G21A C22G  0.568
31. C6A U7A C9A U10A C44G A45U  0.598
32. C6A U7A C9A U10A C36U A37G  0.602
33. C6A U7A C9A U10A G15C C16U  0.63
34. C6A U7A C9A U10A G12U G13A  0.633
35. C6A U7A C9A U10A G11U G12A  0.701
36. C6A U7A C9A U10A G21C C22A  0.729
37. C6A U7A C9A U10A C24U A25U  0.761
38. C6A U7A C9A U10A G15U  0.786
39. C6A U7A C9A U10A G12A G13U  0.801
40. C6A U7A C9A U10A C36A A37C  0.81
41. C6A U7A C9A U10A G15C C16G  0.812
42. C6A U7A C9A U10A G21C C22U  0.813
43. C6A U7A C9A U10A G15A  0.818
44. C6A U7A C9A U10A G21C  0.86
45. C6A U7A C9A U10A G12U  0.96
46. C6A U7A C9A U10A C44G  1.03
47. C6A U7A C9A U10A G13C  1.04
48. C6A U7A C9A U10A G12C G13C  1.06
49. C6A U7A C9A U10A G12U G13C  1.06
50. C6A U7A C9A U10A C44A A45G  1.09
51. C6A U7A C9A U10A G13U A14C  1.14
52. C6A U7A C9A U10A C44U A45C  1.16
53. C6A U7A C9A U10A G13A A14G  1.21
54. C6A U7A C9A U10A G15C  1.25
55. C6A U7A C9A U10A C24U A25G  1.3
56. C6A U7A C9A U10A G12A  1.32
57. C6A U7A C9A U10A G13C A14G  1.42
58. C6A U7A C9A U10A C44G A45C  1.44
59. C6A U7A C9A U10A C44A  1.49
60. C6A U7A C9A U10A G11U G12U  1.53
61. C6A U7A C9A U10A G13C A14U  1.56
62. C6A U7A C9A U10A G13C A14C  1.58
63. C6A U7A C9A U10A G12A G13A  1.6
64. C6A U7A C9A U10A G21C C22G  1.63
65. C6A U7A C9A U10A G11A G12U  1.67
66. C6A U7A C9A U10A C44A A45U  1.71
67. C6A U7A C9A U10A G12C G13A  1.72
68. C6A U7A C9A U10A G11A G12A  1.79
69. C6A U7A C9A U10A G13A A14U  1.82
70. C6A U7A C9A U10A C44A A45C  1.9
71. C6A U7A C9A U10A G11C G12U  1.91
72. C6A U7A C9A U10A G12A G13C  1.94
73. C6A U7A C9A U10A G11A  1.96
74. C6A U7A C9A U10A G13A  1.97
75. C6A U7A C9A U10A G11C G12A  1.98
76. C6A U7A C9A U10A G12C  2.21
77. C6A U7A C9A U10A G11A G12C  2.24
78. C6A U7A C9A U10A C24U A25C  2.5
79. C6A U7A C9A U10A G11U G12C  2.55
80. C6A U7A C9A U10A G11C G12C  2.68
81. C6A U7A C9A U10A G13A A14C  2.82
82. C6A U7A C9A U10A G11U  2.89
83. C6A U7A C9A U10A G11C  3.21
